Reference: a protein production outcome set (Wang et al. 2014)

test: label from the status in PepcDB records

Sequence | protein production
SIAYIEPYFLENDAEAASAATAAGKSTDGVSESLNIQGEILCGGAAADIAGRDFGGMNCVKPLAVVRPVGPEDIAGAVKAALRSDKLTVAARGNGHSINGQAMAEGGLVVDMSTTAENHFEVGYLSGGDATAFVDVSGGALWEDVLKRCVSEYGLAPRSWTDYLGLTVGGTLSNAGVSGQAFRYGPQTSNVTELDVVTGNGDVVTCSEIENSELFFSVLGGLGQFGIITRARVLLQPAPDMVRWIRVVYTEFDEFTQDAEWLVSQKNESSFDYVEGFVFVNGADPVNGWPTVPLHPDHEFDPTRLPQSCGSVLYCLELGLHYRDSDSNSTIDKRVERLIGRLRFNEGLRFEVDLPYVDFLLRVKRSEEIAKENGTWETPHPWLNLFVSKRDIGDFNRTVFKELVKNGVNGPMLVYPLLRSRWDDRTSVVIPEEGEIFYIVALLRFVPPCAKVSSVEKMVAQNQEIVHWCVKNGIDYKLYLPHYKSQEEWIRHFGNRWSRFVDRKAMFDPMAILSPGQKIFNRSL | not failed
SIPMRLLSDCPQFSRKTVKLLTNGGDMLELCYELRLPFVHWISVNQKSSFKRYEISHVYRRAIGHSPPNPCLQADFDIVGGTLSLTEAEVLKVIVDITTHIFHRGSCDIHLNHGDLLDAIWSWAGIKAEHRRKVAELLSMMGSLRPQSSERKLKWVFIRRQLLQELKLPEAVVNRLQTVASRFCGDADQALPRLRGALRADRPTRKALDELSNLLTYLRVWRIEEHVHIDVLMPPTESYHRNLFFQVFLTKENSSGTSNDGVLLAVGGRYDWLVQEVCDREHKMNLPGAVGVSLALETIFQHLPMDLRPIRNEVSTSVLVCSRGGGGLLVQRMELVAELWEKSIKAEFVPTPDPSLTEQYEYANEHEIKCLVIITESGVAQNQIEFVKVRHLELKKEKVVGR | not failed
SIRTKQSEAKSKGDTLRQLELAALMTHCNMLITHQQLALQAAMKLAYATKNYLYALAFAKRLLELAPNEEMERTAKKVMQFCERNPNNQNQLDYDIEQSNFAIDAGRLKPCIQPPTKSCVYCGACYDESWHSMTCVVCQVAQD | not failed
SIVLSDPDTVADYLRFHLGQEKVEVSVALLLNRQNQLIAVRELSRGTVAENTIYIREIVKLALDEYADSLIIAHNHPGGSPEPSQEDIMFTRRLAQAMSLVDVSLLDHFIVTSQSVCSFRQLGLMP | not failed
SKDHTEFMVHLNNRIILRRWSIFKEFLHSEELKNTPASVEAELAVTAILEKLNQQIPPRPFQTHSSTTSAKQSTATIHNPQRTYCVGDQLNVLLVAKDYFGNRKEYGGDFLRARIFSPAMKAGTSGKVTDFNNGTYLVSFTLFWEGPVSLSILLMHPSEGVSALWRARNRGYGKIIFTGQFLNGTSPVLTECGLTLNTSAELCQYLDARDHEAFYCLKLPGVPCEALTHMTSKNSNISYLSLEEKLLFRRFNIGVEVVKNLSIVVSLCNNKTNKKKKKCQIGMETPSPGGYTLKGRWITAHCEQNEFRAIKDINNCLTRKLIYLMGDSTLRQWIYYLPKVVKTLKYFDRHGAGPFKTHILLDTERHIFVQWKKHSHPFVTNKLFSMKDDNYIPREIDQVAGDSGTAIVISFGQHFRPFPINVFIRRAINVKNAIERLFLRSPETKVIIKTENIREINEHVEIFSDFHGSIQNLIIRDIFRDLNVGIIDAWDMTVAYRSEDVHPPESVIESQIGMFLNYIC | failed
SKDPAFTALLTTQLQVQREIVNKHNELRKAVSPPASNMLKMEWSREVTTNAQRWANKCTLQHSDPEDRKTSTRCGENLYMSSDPTSWSSAIQSWYDEILDFVYGVGPKSPNAVVGHYTQLVWYSTYQVGCGIAYCPNQDSLKYYYVCQYCPAGNNMNRKNTPYQQGTPCAGCPDDCDKGLCTNSCQYQDLLSNCDSLKNTAGCEHELLKEKCKATCLCENKIY | failed
SKDVLADYKELFRQFSISDIAVWVSTPSFAGVCITEKEFNSKMLPNLESMIFIGEALSKNLTKELMSRFPNTRIINGYGPTEATVGVSVNDMTQKAIDDEK | failed
SKEVRGTLKVSAPRDIGKQHIAPILAAFTEQYPEVVPYLYLNDNISNLAESGLDVVIRYGELADSSLISRKLATSRRVLCASPAYLARKGIPKTPQDLAQHDCLAMVRSNEEMKTWHFQENEQHKVITVVPKSFADDGEVIR | failed
SKIHNVGSPLKSQNHPDSRAIMYEETTYSKKKIIDFLSALEGFKVMCKIIGIMEEVADGFKSKILKQVISLQTKNPEGRFPDLTVELNRWDTAFDHEKARKTGLITPKAGFDSDYDQALADIRENEQSLLEYLEKQRNRIGCRTIVYWGIGRNRYQLEIPENFTTRNLPEEYELKSTKKGCKRYWTKTIEKKLANLINAEERRDVSLKDCMRRLFYNFDKNYKDWQSAVECIAVLDVLLCLANYSRGGDGPMCRPVILLPEDTPPFLELKGSRHPCITKTFFGDDFIPNDILIGCEEEEQENGKAYCVLVTGPNMGGKSTLMRQAGLLAVMAQMGCYVPAEVCRLTPIDRVFTRLGASDRIMSGESTFFVELSETASILMHATAHSLVLVDELGRGTATFDGTAIANAVVKELAETIKCRTLFSTHYHSLVEDYSQNVAVRLGHMACMVENECEDPSQETITFLYKFIKGACPKSYGFNAARLANLPEEVIQKGHRKAREFEKMNQSLRLFREVCLASERSTVDAEAVHKLLTLIKEL | failed
SKIIDIKTSIIKIPLKRTFITAVRSTNHIDSLAVELTLDNGVKGYGVAPATTAITGDTLQGMQYIIREIFAPVILGSDLSDYKQTLELAFKKVMFNSAAKMAIDLAYHDLLAKEQDISVAKLLGAKANSIVTDVSISCGNVAETIQNIQNGVEANFTAIKVKTGADFNRDIQLLKALDNEFSKNIKFRFDANQGWNLAQTKQFIEEINKYSLNVEIIEQPVKYYDIKAMAEITKFSNIPVVADESVFDAKDAERVIDEQACNMINIKLAKTGGILEAQKIKKLADSAGISCMVGCMMESPAGILATASFALAEDITVADLDPLDWVAKDLYSDYITFNEPNIILKDNLKGFGFNL | not failed
SLDLDLQRRVYDIISKAVEGNSAEAGHVIVMESKTGRILSMVTTRNWNDLIGGYIEPGSTIKPLVYAIALETHSASPDFTVECEGSIKPVEQLPVIIRDIEKHGLVDFSAGIVKSCNVMSVKVGELITEKTGVEGFYEWLRKVGFGEKTGIEMEGEIAGVLREPKKWSLIDPAEISIGQGIGVTPVQLIASLNIFANDGYWVKPTILKDSPVKKRRVFSKETTDVIRQAMVRVVEEGTGKLAQVKGIAIAGKTGTAQKAVGGEYRNLYHSLFVGFFPAEDPKYTILVHLDSPSGAFYGGEVAAPVFREIVEILTEKED | failed
SLENERLIKMSRFSERGYVVRENGPVYFTKDMDKTVKWFEEILGWSGDIVARDDEGFGDYGCVFDYPSEVAVAHLTPFRGFHLFKGEPIKGVAGFMMIEGIDALHKYVKENGWDQISDIYTQPWGARECSITTTDGCILRFFESIQEG | not failed
SLENLATAPVNQIQETISDNCVVIFSKTSCSYCTMAKKLFHDMNVNYKVVELDLLEYGNQFQDALYKMTGERTVPRIFVNGTFIGGATDTHRLHKEGKLLPLVHQCYLKKSKRKEFQ | not failed
SLGAMFRAGTPMPPNLNSQGGGHYFIDRDGKAFRHILNFLRLGRLDLPRGYGETALLRAEADFYQIRPLLDALRELEASQGTPAPTAALLHADVDVSPRLVHFSARRGPHHYELSSVQVDTFRANLFCTDSECLGALRARFGVASGDRAEGSPHFHLEWAPRPVELPEVEYGRLGLQPLWTGGPGERREVVGTPSFLEEVLRVALEHGFRLDSVFPDPEDLLNSRSLRFVRH | not failed
SLGVQPPNFSWVLPGRLAGLALPRLPAHYQFLLDLGVRHLVSLTERGPPHSDSCPGLTLHRLRIPDFCPPAPDQIDRFVQIVDEANARGEAVGVHCALGFGRTGTMLACYLVKERGLAAGDAIAEIRRLRPGSIETYEQEKAVFQFYQRTK | not failed
SLLGQKSQRYKAEEGLQAQGEAPGLMDVQIPTAEEQKAASSSSTLIMGTLEEVTDSGSPSPPQSPEGASSSLTVTDSTLWSQSDEGSSSNEEEGPSTSPDPAHLESLFREALDEKVAELVRFLLRKYQIKEPVTKAEMLESVIKNYKNHFPDIFSKASECMQVIFGIDVKEVDPAGHSYILVTCLGLSYDGLLGDDQSTPKTGLLIIVLGMILMEGSRAPEEAIWEALSVMGLYDGREHSVYWKLRKLLTQEWVQENYLEYRQAPGSDPVRYEFLWGPRALAETSYVKVLEHVVRVNARVRISYPSLHEEALGEEKGV | not failed
SLLSVDMEMQIPFHDVDSMGITWHGNYLRYFEIARCKLLDELGYNYRQMQASNYAWPIIDLQIKYVKTSTFEQKITVRAELVEWENRLKINYQIRDVETGARITKGYTIQAAVDMCTQELCFVTPEVFRDKIATLFAKVE | failed
SLSLIRKKGFYKQDVNKTAWELPKTYVSPTHVGSGAYGSVCSAIDKRSGEKVAIKKLSRPFQSEIFAKRAYRELLLLKHMQHENVIGLLDVFTPASSLRNFYDFYLVMPFMQTDLQKIMGLKFSEEKIQYLVYQMLKGLKYIHSAGVVHRDLKPGNLAVNEDCELKILDFGLARHADAEMTGYVVTRWYRAPEVILSWMHYNQTVDIWSVGCIMAEMLTGKTLFKGKDYLDQLTQILKVTGVPGTEFVQKLNDKAAKSYIQSLPQTPRKDFTQLFPRASPQAADLLEKMLELDVDKRLTAAQALTHPFFEPFRDPEEETEAQQPFDDSLEHEKLTVDEWKQHIYKEIVNFSPI | not failed
SLSLRPSPRLLCTATKQKNSGQNLEEDMGQSEQKADPPATEKTLLEEKVKLEEQLKETVEKYKRALADTENLRQRSQKLVEEAKLYGIQAFCKDLLEVADVLEKATQCVPKEEIKDDNPHLKNLYEGLVMTEVQIQKVFTKHGLLKLNPVGAKFDPYEHEALFHTPVEGKEPGTVALVSKVGYKLHGRTLRPALVGVVKEA | not failed
SLTGEESDTLRKIVLEECLPNQQQNQNPSPCAEVKPNAGYVVLKDLNGPLQYLLMPTYRINGTESPLLTDPSTPNFFWLAWQARDFMSKKYGQPVPDRAVSLAINSRTGRTQNHFHIHISCIRPDVREQLDNNLANISSRWLPLPGGLRGHEYLARRVTESELVQRSPFMMLAEEVPEAREHMGSYGLAMVRQSDNSFVLLATQRNLLTLNRASAEEIQDHQCEILR | not failed
SLTMDVPPTIHVPLPPTSYPAFDAAIFTDIGGRKHQEDRFTLCPQLVPGRDDCAFFGVFDGTVGDFASENVKDLVVPQLISSPAWQEVTEMLRSDVPATEVDEKLPQLLDQAVDDMYKNADNELVKMCEQLNKDYASSTSVTAVLAKGFVAVGHLGDSRIAMGVETPNGLNCEFLTVDHKPDMPHEKLRIMRNGGSVEYLHNHNNKPFIRGGDFSFRKSRGEQPMQLQYSRAFGGKDLKMYGLSNQPDVRVVRVTPQHRVMILATDGLWDVMSAAQAVEIAMQARQEGRNPAQALVEMTLAEQQSRNQSADNITAMTVFFKKTD | not failed
SNDQYHRAARDGYLELLKEATRKELNAPDEDGMTPTLWAAYHGNLESLRLIVSRGGDPDKCDIWGNTPLHLAASNGHLHCLSFLVSFGANIWCLDNDYHTPLDMAAMKGHMECVRYLDSIAAKQSSLNPKLVGKLKDKAFREAERRIRECAKLQRRHHERMERRYRRELAERSDTLSFSSLTSSTLSRRLQHLALGSHLPYSQATLHGTARGKTKMQKKLERRKQGGEGTFKVSEDGRKSARSLSGLQLGSDVMFVRQGTYANPKEWGRAPLRDMFLSDEDSVSRATLAAEPAHSEVSTDSGHDSLFTRPGLGTMVFRRNYLSSGLHGLGREDGGLDGVGAPRGRLQSSPSLDDDSLGSANSLQDRSCGEELPWDELDLGLDEDLEPETSPLETFLASLHMEDFAALLRQEKIDLEALMLCSDLDLRSISVPLGPRKKILGAVRRRRQAMERPPALEDTEL | not failed
SNQEKLQRTMIHFNNPEVQAFLAVNTFTITGHGETKQLTEMLRSVLNQLAAVSLTSLRRLAEALPKQSVDGKAPLATGEDDDDDEVPGIMENFDEASKNEAN | failed
